From patent US20210380703A1
Substitutions are numbered along the chain they refer to.

B1: 367_C01 (antibody, V domains shown)
VH: EVQLLESGGGLVQPGGSLRLSCAASGFTFDDYSMNWVRQAPGKGLEWVSGINYNGGYKSYADSVKGRFTISRDNSKNTLYLQMNSLRAEDTAVYYCARSANWHDTHLDYWGQGTLVTVSS
VL: DIQMTQSPSSLSASVGDRVTITCRASQSILTYLNWYQQKPGKAPKLVIYATTSLHSGVPSRFSGSGSGTDFTLTISSLQPEDFATYYCQQSYDTPLTFGGGTKVEIK
B2: 367_C05 (antibody, V domains shown)
VH: B1 VH with S33G, G50S, K58T, S59G
VL: B1 VL with T31S, L33V, T51A, L54R, T94L
B3: 367_D10 (antibody, V domains shown)
VH: B1 VH with D31S, S33G, G50N, K58T, H106A
VL: B1 VL with L30I, T31S, T51A, L54R, H55A
B4: 367_H11 (antibody, V domains shown)
VH: B1 VH with D30S, D31S, S33G, S49A, S59G, H106A
VL: B1 VL with L30I, T31S, L33V, T51A, L54R, H55A, D93N, T94S
B5: 367_H06 (antibody, V domains shown)
VH: B1 VH with D30S, D31S, S33G, G50N, K58T, S59G
VL: B1 VL with L30I, V47L, T51A, L54R, H55A
B6: 367_G06 (antibody, V domains shown)
VH: B1 VH with D30S, D31S, S33G, G55S
VL: B1 VL with L33V, V47L
B7: 367_E01 (antibody, V domains shown)
VH: B1 VH with D30S, D31S, S33G, S49A, H106A
VL: B1 VL with T31S, L33V, V47L, L54R, H55A, T94L
B8: 367_E04 (antibody, V domains shown)
VH: B1 VH with D30S, G50S, S59G
VL: B1 VL with T31S, V47L, T51A, L54R, H55A, D93E, T94S
B9: 367_F03 (antibody, V domains shown)
VH: B1 VH with D30S, D31S, S49A, G55S, H106A
VL: B1 VL with T31S, L33V, T51A, H55A, Y92D
B10: 367_G05 (antibody, V domains shown)
VH: B1 VH with D30S, S33G, S49A, G50N, K58T, H106A
VL: B1 VL with L30V, T31S, T51A, H55A
B11: 367_F07 (antibody, V domains shown)
VH: B1 VH with D31S, S33G, N35H, S49A, G50N, K58T, S59G, H106A
VL: B1 VL with L30I, T31S, L33V, V47L, T51A, L54R, H55A, D93E
B12: 367_E11 (antibody, V domains shown)
VH: B1 VH with D31S, S33G, G50S, G55S, S59G
VL: B1 VL with L30V, T31S, L33V, T51A, L54R
B13: 367_E09 (antibody, V domains shown)
VH: B1 VH with D30S, S33G, S49A, G50S, G55S, S59G, H106A
VL: B1 VL with T31S, L54R, H55A, D93E
B14: 367_G10 (antibody, V domains shown)
VH: B1 VH with S33G, K58T, H106A
VL: B1 VL with L30I, T31S, L33V, V47L, T51A, L54R, H55A, T94S
B15: 368_A02 (antibody, V domains shown)
VH: B1 VH with D31S, S33G, S49A, S99A
VL: B1 VL with L30I, T31S, L33V, T51A, L54R, H55A
B16: 373_H03 (antibody, V domains shown)
VH: B1 VH with D30S, D31S, G55S, S99G, H106A
VL: B1 VL with T31S, V47L, L54R, H55A, D93E, T94N
B17: 373_F08 (antibody, V domains shown)
VH: B1 VH with D30S, D31S, K58T, S99G, H106A
VL: B1 VL with V47L, T51A, L54R, H55A
B18: 373_C10 (antibody, V domains shown)
VH: B1 VH with D30S, D31S, S49A, K58T, S99G, H106A
VL: B1 VL with L33V, V47L, T51A, L54R, H55A, T94N
B19: 373_E10 (antibody, V domains shown)
VH: B1 VH with D30S, K58T, S99G, H106A
VL: B1 VL with L33V, T51A, L54R, D93E
B20: 373_F12 (antibody, V domains shown)
VH: B1 VH with D30S, D31S, G50N, K58T, S59G, S99G, H106A
VL: B1 VL with L30S, T51A, L54R, H55A, D93E
B21: 373_H07 (antibody, V domains shown)
VH: B1 VH with D30S, D31S, S49A, K58T, S99G
VL: B1 VL with L30V, V47L, T51A, T52S, H55Q, T94S
B22: 373_D12 (antibody, V domains shown)
VH: B1 VH with D31S, G50S, G55S, S59G, S99G
VL: B1 VL with T31S, L33V, V47L, T51A, L54R, H55A, D93S, T94L
B23: 373_B07 (antibody, V domains shown)
VH: B1 VH with D31S, K58T, S99G, H106A
VL: B1 VL with L33V, T51A, L54R, H55A, D93E, T94L
B24: 373_A11 (antibody, V domains shown)
VH: B1 VH with D30S, D31N, S33G, S49A, G50N, K58T, S59G, S99G, H106A
VL: B1 VL with V47L, T51A, L54R, H55A, T94L
B25: 374_A09 (antibody, V domains shown)
VH: B1 VH with D30S, D31S, G50S, S59G, S99G
VL: B1 VL with L33V, V47L, T51A, H55A, T94S
B26: 373_C03 (antibody, V domains shown)
VH: B1 VH with D30S, D31S, S99G, H106A
VL: B1 VL with L30V, T51A, L54R, H55A, T94S
B27: 373_H09 (antibody, V domains shown)
VH: B1 VH with D30S, D31S, S33G, S49A, G50S, G55S, S99G
VL: B1 VL with L30I, T51A, L54R, H55A, Y92D, T94S
B28: 373_D03 (antibody, V domains shown)
VH: B1 VH with D30S, D31S, K58T, S99G, H106A
VL: B1 VL with L30V, T31S, V47L, T51A, H55A
B29: 373_B05 (antibody, V domains shown)
VH: B1 VH with D30S, G50N, S99G, H106A
VL: B1 VL with L30V, T51A, L54R, H55A, D93S, T94N
B30: 373_F11 (antibody, V domains shown)
VH: B1 VH with D31S, S33G, N35H, G55S, K58T, S99G
VL: B1 VL with L30V, T31S, L33V, V47L, T51A, L54R, H55A, D93N, T94L
B31: 373_A12 (antibody, V domains shown)
VH: B1 VH with D30S, D31S, G50S, K58T, S99G, H106A
VL: B1 VL with T51A, L54R, H55A
B32: 373_G08 (antibody, V domains shown)
VH: B1 VH with D31S, G50N, K58T, S99G, H106A
VL: B1 VL with V47L, T51A, H55A, T94S
B33: 373_C07 (antibody, V domains shown)
VH: B1 VH with D31S, S49A, G55S, K58T, S99G
VL: B1 VL with T51A, L54R, H55A, D93E
B34: 374_A06 (antibody, V domains shown)
VH: B1 VH with D30S, D31S, G50S, G55S, K58T, S99G
VL: B1 VL with T31S, T51A, L54R, H55A, T94S

The binders below were run against Human Fc (human) (assay: ELISA, negative control).

| optical density | Binder |
| --- | --- |
| 0.348 OD | B1 |
| 0.255 OD | B2 |
| 0.251 OD | B3 |
| 0.323 OD | B4 |
| 0.313 OD | B5 |
| 0.28 OD | B6 |
| 0.351 OD | B7 |
| 0.284 OD | B8 |
| 0.301 OD | B9 |
| 0.283 OD | B10 |
| 0.242 OD | B11 |
| 0.244 OD | B12 |
| 0.249 OD | B13 |
| 0.286 OD | B14 |

Each binder was assayed against human Fc (human) (assay: ELISA, negative control).

| optical density | Binder |
| --- | --- |
| 0.376 OD | B15 |
| 0.172 OD | B16 |
| 0.202 OD | B17 |
| 0.318 OD | B18 |
| 0.188 OD | B19 |
| 0.158 OD | B20 |
| 0.199 OD | B21 |
| 0.224 OD | B22 |
| 0.208 OD | B23 |
| 0.184 OD | B24 |
| 0.231 OD | B25 |
| 0.171 OD | B26 |
| 0.166 OD | B27 |
| 0.18 OD | B28 |
| 0.184 OD | B29 |
| 0.204 OD | B30 |
| 0.179 OD | B31 |
| 0.172 OD | B32 |
| 0.206 OD | B33 |
| 0.173 OD | B34 |
